The target in this assay is T1, soluble human CD3ε chain (human, UniProt P07766 23-126, limits assumed).
T1 construct: also called human CD3 epsilon chain
The experiment in a line: SPR (Biacore), soluble human CD3ε chain. (In SPR one partner is held on a chip, and binding of the other changes the refractive index at the surface.)

T1 sequence (P07766 23-126 limits assumed): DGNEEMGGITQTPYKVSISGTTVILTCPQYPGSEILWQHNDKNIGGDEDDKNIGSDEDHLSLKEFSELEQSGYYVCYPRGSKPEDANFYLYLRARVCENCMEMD

B1: TR01H067-E22Hh/none-Hi-Kn010G3/TR01L018-k0 (antibody, human IgG1, kappa, L234A L235A, N297A)
heavy: QVQLVESGGGLVQPGRSLRLSCAASGFTFSNAWMHWVRQAPGKGLEWVAQIKDKSQNYATYYAESVKGRFTISRDDSKNSLYLQMNSLKTEDTAVYYCRYVHYAASYGVDAWGQGTTVTVSSASTKGPSVFPLAPSSKSTSGGTAALGCLVKDYFPEPVTVSWNSGALTSGVHTFPAVLQSSGLYSLSSVVTVPSSSLGTQTYICNVNHKPSNTKVDKKVEPKSCDKTHTCPPCPAPEAAGGPSVFLFPPKPKDTLMISRTPEVTCVVVDVSHEDPEVKFNWYVDGVEVHNAKTKPREEQYASTYRVVSVLTVLHQDWLNGKEYKCKVSNKALPAPIEKTISKAKGQPREPQVYTLPPSRCELTKNQVSLSCAVKGFYPSDIAVEWESNGQPENNYKTTPPVLDSDGSFFLVSKLTVDKSRWQQGNVFSCSVMHEALHNHYTQKSLSLSPDYKDDDDK
chain: EPKSSDKTHTCPPCPAPELLGGPSVFLFPPKPKDTLMISRTPEVTCVVVDVSHEDPEVKFNWYVDGVEVHNAKTKPREEQYNSTYRVVSVLTVLHQDWLNGKEYKCKVSNKALPAPIEKTISKAKGQPREPQVCTLPPSRDELTKNQVSLWCLVKGFYPSDIAVEWESNGQPENNYKTTPPVLDSDGSFFLYSKLTVDKSRWQQGNVFSCSVMHEALHNRYTQKSLSLSP
light: DIVMTQSPLSLPVTPGEPASISCQASESPVHSNRNTYLHWYLQKPGQSPQLLIYKVSNRFSGVPDRFSGSGSGTDFTLKISRVEAEDVGVYYCGQGTQVPYTFGQGTKLEIKRTVAAPSVFIFPPSDEQLKSGTASVVCLLNNFYPREAKVQWKVDNALQSGNSQESVTEQDSKDSTYSLSSTLTLSKADYEKHKVYACEVTHQGLSSPVTKSFNRGEC
notes: one-arm antibody (single Fab) with Fab-less hinge-Fc chain Hi-Kn010G3
B1: the Kd amounted to 52.6 nM.

B2: TR01H082-E22Hh/none-Hi-Kn010G3/L0268-k0 (antibody, human IgG1, kappa, L234A L235A, N297A)
heavy: QVQLVESGGGLVQPGRSLRLSCAASGFTFSNAWMHWVRQAPGKGLEWVAQIKDKSQNYATYYAESVKGRFTISRDDSKNSLYLQMNSLKTEDTAVYYCRYVHYAAGYGVDAWGQGTTVTVSSASTKGPSVFPLAPSSKSTSGGTAALGCLVKDYFPEPVTVSWNSGALTSGVHTFPAVLQSSGLYSLSSVVTVPSSSLGTQTYICNVNHKPSNTKVDKKVEPKSCDKTHTCPPCPAPEAAGGPSVFLFPPKPKDTLMISRTPEVTCVVVDVSHEDPEVKFNWYVDGVEVHNAKTKPREEQYASTYRVVSVLTVLHQDWLNGKEYKCKVSNKALPAPIEKTISKAKGQPREPQVYTLPPSRCELTKNQVSLSCAVKGFYPSDIAVEWESNGQPENNYKTTPPVLDSDGSFFLVSKLTVDKSRWQQGNVFSCSVMHEALHNHYTQKSLSLSPDYKDDDDK
chain: EPKSSDKTHTCPPCPAPELLGGPSVFLFPPKPKDTLMISRTPEVTCVVVDVSHEDPEVKFNWYVDGVEVHNAKTKPREEQYNSTYRVVSVLTVLHQDWLNGKEYKCKVSNKALPAPIEKTISKAKGQPREPQVCTLPPSRDELTKNQVSLWCLVKGFYPSDIAVEWESNGQPENNYKTTPPVLDSDGSFFLYSKLTVDKSRWQQGNVFSCSVMHEALHNRYTQKSLSLSP
light: DIVMTQSPLSLPVTPGEPASISCRSSQSPVHSNRNTYIQWYQQKPGQAPRLLIYKVSNRFSGVPDRFSGSGSGTDFTLKISRVEAEDVGVYYCVQGTQVPYTFGQGTKLEIKRTVAAPSVFIFPPSDEQLKSGTASVVCLLNNFYPREAKVQWKVDNALQSGNSQESVTEQDSKDSTYSLSSTLTLSKADYEKHKVYACEVTHQGLSSPVTKSFNRGEC
notes: as for B1
B2 returned a Kd of 136 nM.

B3: TR01H082-E22Hh/none-Hi-Kn010G3/L0222-k0 (antibody, human IgG1, kappa, L234A L235A, N297A)
heavy: QVQLVESGGGLVQPGRSLRLSCAASGFTFSNAWMHWVRQAPGKGLEWVAQIKDKSQNYATYYAESVKGRFTISRDDSKNSLYLQMNSLKTEDTAVYYCRYVHYAAGYGVDAWGQGTTVTVSSASTKGPSVFPLAPSSKSTSGGTAALGCLVKDYFPEPVTVSWNSGALTSGVHTFPAVLQSSGLYSLSSVVTVPSSSLGTQTYICNVNHKPSNTKVDKKVEPKSCDKTHTCPPCPAPEAAGGPSVFLFPPKPKDTLMISRTPEVTCVVVDVSHEDPEVKFNWYVDGVEVHNAKTKPREEQYASTYRVVSVLTVLHQDWLNGKEYKCKVSNKALPAPIEKTISKAKGQPREPQVYTLPPSRCELTKNQVSLSCAVKGFYPSDIAVEWESNGQPENNYKTTPPVLDSDGSFFLVSKLTVDKSRWQQGNVFSCSVMHEALHNHYTQKSLSLSPDYKDDDDK
chain: EPKSSDKTHTCPPCPAPELLGGPSVFLFPPKPKDTLMISRTPEVTCVVVDVSHEDPEVKFNWYVDGVEVHNAKTKPREEQYNSTYRVVSVLTVLHQDWLNGKEYKCKVSNKALPAPIEKTISKAKGQPREPQVCTLPPSRDELTKNQVSLWCLVKGFYPSDIAVEWESNGQPENNYKTTPPVLDSDGSFFLYSKLTVDKSRWQQGNVFSCSVMHEALHNRYTQKSLSLSP
light: DIVMTQSPLSLPVTPGEPASISCRSSQSPVHSNRNTYIQWYQQKPGQAPRLLIYKVSNRFSGVPDRFSGSGSGTDFTLKISRVEAEDVGVYYCYQGTQVPYTFGQGTKLEIKRTVAAPSVFIFPPSDEQLKSGTASVVCLLNNFYPREAKVQWKVDNALQSGNSQESVTEQDSKDSTYSLSSTLTLSKADYEKHKVYACEVTHQGLSSPVTKSFNRGEC
notes: as for B1
The molecule B3 showed a Kd of 101 nM.

B4: TR01H068-E22Hh/none-Hi-Kn010G3/L0000-k0 (antibody, human IgG1, kappa, L234A L235A, N297A)
heavy: QVQLVESGGGVVQPGGSLRLSCAASGFTFSNAWMHWVRQAPGKGLEWVAQIKDKSQNYATYYAESVKGRFTISRDDSKNSLYLQMNSLKTEDTAVYYCRYVHYAASYGVDAWGQGTTVTVSSASTKGPSVFPLAPSSKSTSGGTAALGCLVKDYFPEPVTVSWNSGALTSGVHTFPAVLQSSGLYSLSSVVTVPSSSLGTQTYICNVNHKPSNTKVDKKVEPKSCDKTHTCPPCPAPEAAGGPSVFLFPPKPKDTLMISRTPEVTCVVVDVSHEDPEVKFNWYVDGVEVHNAKTKPREEQYASTYRVVSVLTVLHQDWLNGKEYKCKVSNKALPAPIEKTISKAKGQPREPQVYTLPPSRCELTKNQVSLSCAVKGFYPSDIAVEWESNGQPENNYKTTPPVLDSDGSFFLVSKLTVDKSRWQQGNVFSCSVMHEALHNHYTQKSLSLSPDYKDDDDK
chain: EPKSSDKTHTCPPCPAPELLGGPSVFLFPPKPKDTLMISRTPEVTCVVVDVSHEDPEVKFNWYVDGVEVHNAKTKPREEQYNSTYRVVSVLTVLHQDWLNGKEYKCKVSNKALPAPIEKTISKAKGQPREPQVCTLPPSRDELTKNQVSLWCLVKGFYPSDIAVEWESNGQPENNYKTTPPVLDSDGSFFLYSKLTVDKSRWQQGNVFSCSVMHEALHNRYTQKSLSLSP
light: DIVMTQSPLSLPVTPGEPASISCRSSQSLVHSNRNTYLHWYQQKPGQAPRLLIYKVSNRFSGVPDRFSGSGSGTDFTLKISRVEAEDVGVYYCGQGTQVPYTFGQGTKLEIKRTVAAPSVFIFPPSDEQLKSGTASVVCLLNNFYPREAKVQWKVDNALQSGNSQESVTEQDSKDSTYSLSSTLTLSKADYEKHKVYACEVTHQGLSSPVTKSFNRGEC
notes: as for B1
Consider B4, for which the Kd is 101 nM.

B5: TR01H075-E22Hh/none-Hi-Kn010G3/L0000-k0 (antibody, human IgG1, kappa, L234A L235A, N297A)
heavy: QVQLVESGGGLVQPGRSLRLSCAASGFTFSNAWMHWVRQAPGKGLEWVAQIKDKSQNYATYYAESVKGRFTISRDDSKNSLYLQMNSLKTEDTAVYYCRYVHYAASYGVDYWGQGTTVTVSSASTKGPSVFPLAPSSKSTSGGTAALGCLVKDYFPEPVTVSWNSGALTSGVHTFPAVLQSSGLYSLSSVVTVPSSSLGTQTYICNVNHKPSNTKVDKKVEPKSCDKTHTCPPCPAPEAAGGPSVFLFPPKPKDTLMISRTPEVTCVVVDVSHEDPEVKFNWYVDGVEVHNAKTKPREEQYASTYRVVSVLTVLHQDWLNGKEYKCKVSNKALPAPIEKTISKAKGQPREPQVYTLPPSRCELTKNQVSLSCAVKGFYPSDIAVEWESNGQPENNYKTTPPVLDSDGSFFLVSKLTVDKSRWQQGNVFSCSVMHEALHNHYTQKSLSLSPDYKDDDDK
chain: EPKSSDKTHTCPPCPAPELLGGPSVFLFPPKPKDTLMISRTPEVTCVVVDVSHEDPEVKFNWYVDGVEVHNAKTKPREEQYNSTYRVVSVLTVLHQDWLNGKEYKCKVSNKALPAPIEKTISKAKGQPREPQVCTLPPSRDELTKNQVSLWCLVKGFYPSDIAVEWESNGQPENNYKTTPPVLDSDGSFFLYSKLTVDKSRWQQGNVFSCSVMHEALHNRYTQKSLSLSP
light: DIVMTQSPLSLPVTPGEPASISCRSSQSLVHSNRNTYLHWYQQKPGQAPRLLIYKVSNRFSGVPDRFSGSGSGTDFTLKISRVEAEDVGVYYCGQGTQVPYTFGQGTKLEIKRTVAAPSVFIFPPSDEQLKSGTASVVCLLNNFYPREAKVQWKVDNALQSGNSQESVTEQDSKDSTYSLSSTLTLSKADYEKHKVYACEVTHQGLSSPVTKSFNRGEC
notes: as for B1
The molecule B5 gave a Kd of 98.8 nM.

B6: TR01H070-E22Hh/none-Hi-Kn010G3/L0000-k0 (antibody, human IgG1, kappa, L234A L235A, N297A)
heavy: QVQLVESGGGVVQPGGSLRLSCAASGFTFSNAWMHWVRQAPGKGLEWVAQIKDKSQNYATYYAESVKGRFTISRDDSKNSLYLQMNSLKTEDTAVYYCRYVHYAASYGVDYWGQGTTVTVSSASTKGPSVFPLAPSSKSTSGGTAALGCLVKDYFPEPVTVSWNSGALTSGVHTFPAVLQSSGLYSLSSVVTVPSSSLGTQTYICNVNHKPSNTKVDKKVEPKSCDKTHTCPPCPAPEAAGGPSVFLFPPKPKDTLMISRTPEVTCVVVDVSHEDPEVKFNWYVDGVEVHNAKTKPREEQYASTYRVVSVLTVLHQDWLNGKEYKCKVSNKALPAPIEKTISKAKGQPREPQVYTLPPSRCELTKNQVSLSCAVKGFYPSDIAVEWESNGQPENNYKTTPPVLDSDGSFFLVSKLTVDKSRWQQGNVFSCSVMHEALHNHYTQKSLSLSPDYKDDDDK
chain: EPKSSDKTHTCPPCPAPELLGGPSVFLFPPKPKDTLMISRTPEVTCVVVDVSHEDPEVKFNWYVDGVEVHNAKTKPREEQYNSTYRVVSVLTVLHQDWLNGKEYKCKVSNKALPAPIEKTISKAKGQPREPQVCTLPPSRDELTKNQVSLWCLVKGFYPSDIAVEWESNGQPENNYKTTPPVLDSDGSFFLYSKLTVDKSRWQQGNVFSCSVMHEALHNRYTQKSLSLSP
light: DIVMTQSPLSLPVTPGEPASISCRSSQSLVHSNRNTYLHWYQQKPGQAPRLLIYKVSNRFSGVPDRFSGSGSGTDFTLKISRVEAEDVGVYYCGQGTQVPYTFGQGTKLEIKRTVAAPSVFIFPPSDEQLKSGTASVVCLLNNFYPREAKVQWKVDNALQSGNSQESVTEQDSKDSTYSLSSTLTLSKADYEKHKVYACEVTHQGLSSPVTKSFNRGEC
notes: as for B1
The molecule B6 gave a Kd of 120 nM.

A word on the Kd: it is the constant that tells how readily two partners part at equilibrium. A higher Kd goes with weaker binding.

The record behind these values is US20210388110A1 (published 2021).
